Literature values in paper PMC4414177, “A novel orally active water-soluble inhibitor of human glutathione transferase exerts a potent and selective antitumor activity against human melanoma xenografts” (Oncotarget, 2015).

Target: GSTP1-1 (Homo sapiens) (UniProt P09211)
Assay: ELISA

Sequence of GSTP1-1 (Homo sapiens) (P09211 2-210): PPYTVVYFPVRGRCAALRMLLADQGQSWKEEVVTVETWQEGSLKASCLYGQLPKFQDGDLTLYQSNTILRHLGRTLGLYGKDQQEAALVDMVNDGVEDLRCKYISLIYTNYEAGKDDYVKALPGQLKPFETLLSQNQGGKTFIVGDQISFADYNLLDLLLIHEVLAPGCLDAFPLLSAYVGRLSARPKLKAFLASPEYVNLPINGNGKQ
Sequence of JNK1α2 (P45983 whole entry): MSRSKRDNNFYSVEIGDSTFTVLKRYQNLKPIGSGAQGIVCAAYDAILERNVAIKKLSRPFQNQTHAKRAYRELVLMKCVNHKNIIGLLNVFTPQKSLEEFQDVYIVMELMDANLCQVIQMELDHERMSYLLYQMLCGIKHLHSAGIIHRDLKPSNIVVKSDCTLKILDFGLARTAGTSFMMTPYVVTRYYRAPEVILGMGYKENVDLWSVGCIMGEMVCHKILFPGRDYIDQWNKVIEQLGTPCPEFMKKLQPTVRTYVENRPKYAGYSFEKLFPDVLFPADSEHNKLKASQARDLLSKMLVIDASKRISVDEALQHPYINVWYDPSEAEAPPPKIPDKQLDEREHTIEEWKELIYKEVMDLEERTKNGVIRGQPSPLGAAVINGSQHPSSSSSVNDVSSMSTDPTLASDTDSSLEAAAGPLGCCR
Sequence of TRAF2 CTD (Q12933 310-501): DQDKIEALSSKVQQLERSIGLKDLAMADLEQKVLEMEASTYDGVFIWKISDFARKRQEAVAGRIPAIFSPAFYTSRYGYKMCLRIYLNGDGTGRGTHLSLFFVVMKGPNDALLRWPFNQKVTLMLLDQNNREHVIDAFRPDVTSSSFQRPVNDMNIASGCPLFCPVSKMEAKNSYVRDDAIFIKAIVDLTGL

Substance | Kd
JNK1α2 (from UniProt P45983) | > 10 µM
TRAF2 CTD (from UniProt Q12933) | > 5 µM
